Data published in article PMC7343719, “Immobilization of the Highly Active UDP-Glucose Pyrophosphorylase From Thermocrispum agreste Provides a Highly Efficient Biocatalyst for the Production of UDP-Glucose” (Frontiers in Bioengineering and Biotechnology, 2020).

Legend:
[1] = substrate: O=P(O)(O)O[C@H]1O[C@H](CO)[C@@H](O)[C@H](O)[C@H]1O; assay: purified protein; assay type: biochemical, Thermocrispum agreste; settings: free enzyme, 0.01-45 mM G1P, 2 mM UTP, 3 mM MgCl2, 50 mM Hepes, pH 7.0, 50°C
[2] = substrate: O=c1ccn([C@@H]2O[C@H](COP(=O)(O)OP(=O)(O)OP(=O)(O)O)[C@@H](O)[C@H]2O)c(=O)[nH]1; assay: purified protein; assay type: biochemical, Thermocrispum agreste; settings: free enzyme, 0.05-6 mM UTP, 30 mM G1P, 3 mM MgCl2, 50 mM Hepes, pH 7.0, 50°C

B1: TaGalU (Thermocrispum agreste) (protein)
chain: MTASAEHQTFTTAIVPAAGLGTRFLPTTKSVPKELLPVVDTPAIELVADEARQAGAERLVIVTSPAKQSIAAYFRPAPELERSLEEKGKTGQLAKIRRAPELLEVEVAIQEQALGLGHAVACAEPNLGPEDDVVAVLLPDDLVLPHGILERMAKVRAEHGGSVLCAFDIPKEEISAYGVFDVSDTDDADVKRVHGMVEKPPAEQAPSTFAAAGRYLLDRAIFDALRRIEPGAGGELQLTDAVALLIQEGHPVHVVVHRGVRHDLGNPGDFLRAAVDFALQDPDYGPELRAWLTDRIARP
notes: full-length, N-terminal His10 tag (pET16bP, no cleavage mentioned), codon-optimized gene (911 bp insert), expressed in E. coli BL21(DE3) pLysS; theoretical mass 33,678 Da; hexamer of about 193 kDa by SEC; EC 2.7.7.9
Km [1]: 440 µM
Vmax [1]: 1110 µmol/min/mg
kcat [1]: 598 s⁻¹
kcat/Km [1]: 1.36e+06 M⁻¹ s⁻¹
Km [2]: 150 µM
Vmax [2]: 1700 µmol/min/mg
kcat [2]: 914 s⁻¹
kcat/Km [2]: 6.09e+06 M⁻¹ s⁻¹
